Target: CXCL8 (human)

| Substance | mean IC50 (three biological replicates) of inhibition of primary human granulocyte migration induced by the EC80 dose of CXCL8 [M] |
| --- | --- |
| P1156:G4S:P1243 two-warhead evasin (from UniProt V5HBW0;A0A0C9S461) | 7.5e-09 |
| P1243:G4S:P1156 two-warhead evasin (from UniProt A0A0C9S461;V5HBW0) | 3.8e-08 |

Source: publication PMC5910400
